# Measurements published in the DeepSol protein solubility set.
# Test: soluble on expression in E. coli; label from the status in PepcDB or PDB records
row,Sequence,soluble on expression in E. coli
1,MGSDKIHHHHHHMLDAQNVSVGYDEKTPIIQQLSFQVHKGEIFGILGPNGSGKTTLLKAVSGLLSPSEGTITLHGKAIADYHSKELAQKMAVLPQTADTAFAYKVKEVVALGRYPHQKGWLASESQEDERVIREAMEQTDTWKFRNKPLQTLSGGERQRALLARALCQEPDLLLLDEPTNHLDISHQMQLLDALKDWTRTRQLTVVAILHDLNMASLYCDRVLLLNEGRMVDLNSPRQVMTEHQLANVYETKIRRNEHPTIPRPLVTFEPAAIRSKPSSPISELEVFTSEQLIKVTSSIRWKTLSSAVLGAGFKWHQTFVNRHVSKDYYCDDVEREFQTFLSNVGVDGTDALGMMTAAILEDVAITEATYESFKVRVFVTAGISNAVDAAKAHLRKRNEATVGTINTWVFIEGTLPDAAYVQALMTATEAKGRALAEKEILDPVTGTLATGTSTDSVMIASSQTGTYFPYAGTITPLGQAIGKLVYDATIQAVTDNEKRRLER,not soluble
2,MRILPQIMAAIVLASPALSQCGGGFSSFVDGLKAEAVSMGHDAALVDRFFQGAAQDAKVLKADRAQGVFQKPFVEFSRRLISQNRLDTGKAMGRKYDAVFDRIEAEYGVSRGVLLAFWAFETDFGGFQGDFNTRNALITLAHDCRRPELFRPQIFAAIELYSHGDFDPARTTGAWAGEIGMVQMLPRDILENGVDGDGDGHVTLKTSAPDALMSGARMLSHLGWRAGEPWLQEVTLPAQMDWSLSGPGKPRSAGEWQAMGVRPRAGDLADLPASLILPQGHKGPAFLAYPNFDVYFEWNQSFVYVLTAAYFGTRLEGGQVYDAGNPAPGLDGAGMKALQQKLQARGHDVGKIDGILGAGTRAAVQAEQARLGLPADAWPTAELLNRL,not soluble
3,MSIAVTTTDPTNTGVSTTSSSSLTGSNAADLQSSFLTLLVAQLKNQDPTNPMENNELTSQLAQISTVSGIEKLNTTLGSISGQIDNSQSLQASNLIGHGVMIPGTTVLAGTGSEEGAVTTTTPFGVELQQAADKVTATITDKNGAVVRTIDIGELTAGVHSFTWDGTLTDGSTATNGSYNVAISASNGGTQLVAQPLQFALVQGVIRGNNGNTLDLGTYGTTILDEVRQII,soluble
4,MSLVMDSLIIKQLIKSTFDIPLQVTYPNGNIETYNGSNPHVKLKLNKNFSVSELSKDPSIVLGEAVMDGDIEIYGSIQELILSAYRCGDSFLRNSKFSKLIPKQFHDKKHSKSDIQKHYDIGNDFYKLWLDDTMTYSCAYFKHENDSLEQAQLNKVHHILNKLNAQPGGKLLDIGCGWGTLIITAAKEYGLNATGITLSEEQASFITKRIKEEGLENKVTVLIKDYRDIRETYDYITSVGMFEHVGKENLSQYFQTISKRLNINGLALIHGITGQVGGNHGSGTNSWINKYIFPGGYIPRLTENLNHIASAGLQIADLEPLRRHYQKTLELWTKNFHNALPEVQKTHDKRFINMWDLYLQSCAASFESGNIDIFQYLLSKGVSKDTMPMTRDYMYSANEGHHHHHH,soluble
5,DIELTQSPASLSVATGEKVTIRCMTSTDIDDDMNWYQQKPGEPPKFLISEGNTLRPGVPSRFSSSGTGTDFVFTIENTLSEDVGDYYCLQSFNVPLTFGCGTKLEIK,soluble
6,MTEHRPAIELEEIPTLLERIEGYKGRSRLTQLAIKLNLLIFIRSSELRFARWSEIDFKSGLWVIPEQREAIKGIKHSDRGAKMRRKHYVPLCEQALVILGELKDLTYDVNGDDGFILTGCYDAMKPMSENTINKALRKMGYDTKTDLCGHGFRTLACSALIESGIWPEDVVELQMSHMEKNNVRAAYTHKAKHLEQRRLMLQWWADFLDANGSGMVRPFEFAQGATQYLEHHHHHH,not soluble
7,MAHHHHHHMVFFFPSFFFHNHDRELSCGKVSKAFIYIKKIHKMRRVSSLKEYNSLKEEAGNGLGLVVHFSASWCEPCKNVGSMLEGYLSQYNQKVLFAEVDADLVTNVCEAENVECVPFIVFFRTSSRERAQERVADVVGGKLDHLEMNLVSLYGNGHDTRESFPDLNEYLKYLTSRKGVVAFITGTPSRPRCGFTGRLVEIFYELGIKFIYYDVWASDEVCEGLKKYSEWPTYPQVYVDGELIGGYDICSQLKESGELKAILKH,soluble
8,MAAQAVSLLREVARLEAPLEELRALQSVVQAVPLHELREQAAELRLRPLFSLLNQNNREQTALCVSILERLLQAVEPIHLARNLRLDLQRGLTHPDDSVKTLTLSQIGRIVENSEAVTEILNNAELLKQIVYCIGGENLSVAKAAIKSLSRISLTQAVLEALFESNLLDDLKNVMKTNDVVRYRVYELIIDISSVSSESLNYCTTSGLVTQLLKELTGEDVLVRATCIEMVTSLAYTHHGRQYLAQEGVIDQISNIIVGADSDPFSGFYLPGFVKFFGNLAVMDSPQQICERYPVFLEKVFEMADSQDPTMIGVAVDTVGILGSSVEGKQVLQKTGTRFERVLMRVGYQAKNASTELKIRCLDAVSSLLYLSPEQQTDDFLGMTESWFSSMSRDSLELFRGISNQPFPELHCAALKVFTAIADQPWAQRLMFNSPGFVEFVMDRSVEHDKASKDAKYELVKALANSKTVAEIFGNSNYLRLRAYLSEGPYYVKPVATTAVEGAD,soluble
9,MSDPLTAQEQHKRRQAVRELMPRTPFIGGLGIVFERYEPDDVVIRLPFRTDLTNDGTYFHGGVIASVMDTAGAAAAWSNHDFDRGTRAATVAMSIQYTGAAKRCDLLCHARTARRRKELTFTEITATDPDGNIVAHAVQTYRIV,not soluble
10,MAHHHHHHMTNRGVVNAEELRGAVCAIVSRYQKTPQRRLLVCVAGRPGSGKTTIANILAEEARELLRKVSSDPRDHAENAVVVMPMDGYHLYRKTLHAMPNREEAIARRGAEWTFDARKLCRDLQAIRLPSETADKKGAPLYDDVFVPSFDHSVGDPKERDICVSGSAAIVIVEGNYLLYRGTPTWAEVNRCFDMGVFQACPAATCARRLCRRHMAAWGISEAEAMVRATGSDAMNGDLVETTGKNADIVLHSIESSI,soluble
11,SNAKVILYARVSSNTQKDDLANQVKYLEEQVKEYDLVITDIGSGLNMKRKGFLKLLRMILNNEVSRVITAYPDRLVRFGFEILEEVCKAHNCEIVVLNQEDKTPEEELVEDLATILVSFSGKLHGMRSQKYEKVKKCAEELKN,soluble
12,MQILKAIGLLMEYPDDELWECRDEALTLIQHDAPMLADFTRELLYAPLLDKQAEWCEVFDRGRATSLLLFEHVHAESRDRGQAMVDLLSQYETVGLHLNCRELPDHLPLYLEYLSVLPEAEAREGLQNIAPILALLGGRLKQRGAPWYQLFDALLTLAGSTLTSDSVTKQIIQESRDDTRQALDAVWEEEQVKFIEDNATTCDSSPLHHYQRRFSQDAAPQYVDVSAGGPK,not soluble
13,MGSDKIHHHHHHMLKSIKSSGVTAVLDHDGFNKRIRVVRYDGAIEKALPDIVAAAKEENAEKIIVYAKQHDEPILAKQLFAPEGYLKGYYLGHSACVMVRYLSESRRQTDSYTEEQEIIEAIYRTAPRLRNDSTPVFTMRKAETNDMYQLSMLYKKVFRTYPTPVFDPAYIEKTMNANTVYYIMLDHDRLISAASAEINPELGHAEITDCAVLPEYRGHSLTSFLIEALEKEMAGEDIVHVFSLARASSFGMNAVLYHSGYQYGGRLINNCFIAEGLENMNIWCKQL,not soluble
14,PSFSFGGITPVSLQRSSMELISVQAVKHPKLLLYLSERGLQPSDASPFLSEVYYKVSRKCFFALGFPNDAGGWELRNPYFKGCFAPKAITTIKGTDSHKLLLFEGFMDFLSWRKLHPEGQAESIILNSLTLLPKLMPTLHPYPMIESLLDNDEAGDRATKQLIDAGLPVKDMRACYAPYKDINEYLTLAEQRKKILTPHKRGLRR,not soluble
15,MSLNTFWKSFPDVERSLTETCELIEQTLHTRNEDIEEALVTLARSGGKLLRPAFFFLFAQLGDEEKQEKQQLLKIAASLEILHMATLIHDDIIDDSPLRRGAVTIQSQYGKDVAVYTGDLLFTEFFTLIADAMNGSEFMKINAQGMKRLLLGELDQMSHRFDRRMSIPAYLRSVNGKTAELFSLSCLEGAYFGHSSKEVQRLAKRIGRHIGIAFQVYDDILDYTADTETLKKPALEDLSQGVYTLPLLFAYQAAPDVFSPYLDKGRAITLEEAAEVAALVNDYHGVTEAQAFAKKVTNKAITDIQQLPDGTAKETLLSLTELLLHRSFEGHHHHHH,soluble
16,MDTALYLLPVTLGDTPIESVLPSYNKEIIQGIKHFIVEDVRSARRFLKKVDREIDIDSLTFYPLNKHTSPEDISGYLKPLAGGLSMGVISEAGCPAVADPGADVVAIAQRKNLKVVPLVGPSSIILSVMGSGFSGQSFAFHGYLPIEPGERAKKIKALEQRVYAEHQTQLFIETPYRNNKMVEDILHNCRPQTRLCIAANITCEGEYIRTKTIKEWQGKVPDLTKIPCIFLLYQLEHHHHHH,not soluble
17,MSLGEKSRETSSPWSSTILLVKITSADGLVGYGEAPTTLMTLPVLESMKEVARVFNGKDFFNVERNVFDFYRNSFYLPVSMEATSALSAFEIASWDLIGKQLGTPVYKLLGGEVNQKMRAYANGWYNDCVSPDDFLKKAKEVVKMGFTAMKFDPFGDNYDSITNDGLENARNIVGTLRSELGDKVDLLIEYHGRFSKIAAIKAGMALEEYHPFFYEEPLHPDLDHDLLDLKNYYRVPIALGERVLNKKIFARFISQKLVDIIQPDLTNSGGILEGKKIAAIADGFGIPVAPHNAFGPIQTAATLNLDTTITNFIIQESFEMFWPDWKKKLVSSGYKLENGYFTLTNEPGVCKVNEDIVEKYQVSGMEPFDDKEPPWVVSGTFKPYRQKEGHHHHHH,not soluble
18,MSLRVAVGMSGGVDSSVTALLLKEQGHDVIRVTLRFHTVEACEVNETHNVCCSPKDVQDASRVAKRLGIPHLVFSWEEIFKSKVIDYFVEEYKRGRTPNPCALCNREVKTGFFARYLKQVADIDKLATGHYAKIEEDKKYGLVIKRPKDRKRDQTYFLSLVRREDLELLTFPLGAYTKEEVREIAKRYGLEVAQKRDSQEVCFLMGKSPGEYLEGILGKQRGLIKHVSGKVLGEHEGVYRYTIGQRRGLGISYGKPVYVIDIDAKTNTLIVGEEEYLYNDKLLVKEINFHVPLEKWENVSAQIRYRHKPVPVERIEKTEEGFLVKFKEDVRGITPGQVVAFYDGDVLLGGGIIEESVKEGHHHHHH,soluble
19,MQSRWNDTEAETFAAEARARGEPAELGLRVYSSRLIGQDPDLVLHGGGNTSVKIPSPEGMLIHVKGSGWDLGDIEAPGLPAMHLAPLLETRDVPQMSDEEMVALLRAHLLDPAAPTPSVEALLHAYMPQAFVDHTHATAILALADQADMEPVVAELFGGRVGWVPYVMPGYALSHACREAFARDPSVEGLWLEQHGLFTFAETARESYERMIGFVTMAEEHLAARGVPLPGPEANDGTAPERLAADLRAALAARGALGADPSLDFRSSPSIRSYLGRADLPELARRGTATPDHVIRLKPFPMLLEPTAGPAEIEAALDAFEAEYRAYFDRNAPNASEAKIMLDPLPRVVLVPGLGGWGVGANGKAARIAGDLLEQTSRVVNAAETYRRFTPISEGDLFDMEYWSLEQAKLRKA,not soluble
20,MAASRDIFAPDFRRRPYWWEGYEPPECGEDTLPASADVAIVGGGYTGVCCALALREAGIEAVVLEAGRPGEGASTRSGGQVSGGVNVQKKALAAVGESAGQRAERLAARLRDAAASMAYVESLIERYAIECGWHRTGRLTTMWVPAHYQSWQARLDQLNACTGSQARMIPREELAAEIGSSVYHGAALIEHAGHLQPAQLYGGMLRAARDAGARVLGRTPVERIERRAGGYDVHTARGTVRAGQVVIATNGYTGANLGGLKRRIVPVCTHMITTEALPPDLAASLLPTNRAVSESRRVVNHYRLSPDGRRLLFGGRARFVPTDEATTARLLYRAMLKRFPQLAGTRITHSWGGNVAMTLDSMPHIGGADGLHYALGCNGSGVAMMSYLGHCVGRKIATQSGEPINAFDMGEIPGHPFYFGNPWFLFAIGSWYQARDAYDHWRARLEHHHHHH,not soluble
